The text below walks through data of US20220403048A1, “BINDING MOLECULES TO ARGINASE II [ARG2]” (Cancer Research Technology Limited, priority 2019, published 2022).

A value given as a limit tells only on which side of the number the result lay.

The target in assay [1] is recombinant human trimeric ARG2 enzyme (construct not given) (human) (UniProt P78540). The experiment in a line: cell-based or functional assay.
The target in assay [2] is biotinylated recombinant human trimeric ARG2 enzyme (Avi-huARG2-His10) (human) (UniProt P78540). The experiment in a line: HTRF epitope competition, scFv titrated, competitor C0020187 IgG, on biotinylated human trimeric ARG2. Background: TR-FRET usually uses a lanthanide donor and a delayed reading to cut background.
For assay [3], the target named is recombinant human trimeric ARG2 enzyme (construct not given) (human) (UniProt P78540). Description: size-exclusion chromatography, 8 µM each. (SEC sorts molecules by how far they enter the pores of the column.)
Target sequence in this assay (P78540 23-354, form in doubt): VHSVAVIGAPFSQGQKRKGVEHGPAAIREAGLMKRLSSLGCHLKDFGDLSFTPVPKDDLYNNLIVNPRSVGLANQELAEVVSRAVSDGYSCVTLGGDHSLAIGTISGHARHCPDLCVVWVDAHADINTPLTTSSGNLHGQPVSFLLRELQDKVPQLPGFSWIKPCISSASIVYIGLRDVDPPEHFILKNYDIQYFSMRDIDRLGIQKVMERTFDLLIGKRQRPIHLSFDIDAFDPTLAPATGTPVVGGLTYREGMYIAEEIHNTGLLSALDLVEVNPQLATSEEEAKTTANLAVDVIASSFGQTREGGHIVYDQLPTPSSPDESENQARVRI
The target is the same in assay [4]. The experiment in a line: dynamic light scattering, 8 µM each.
Target sequence in this assay (P78540 23-354, form in doubt): as above

biotinylated recombinant human trimeric ARG2 enzyme (Avi-huARG2-His10) (human), sequence (P78540 other isoform, or with tags, fused parts or gaps limits assumed, form in doubt): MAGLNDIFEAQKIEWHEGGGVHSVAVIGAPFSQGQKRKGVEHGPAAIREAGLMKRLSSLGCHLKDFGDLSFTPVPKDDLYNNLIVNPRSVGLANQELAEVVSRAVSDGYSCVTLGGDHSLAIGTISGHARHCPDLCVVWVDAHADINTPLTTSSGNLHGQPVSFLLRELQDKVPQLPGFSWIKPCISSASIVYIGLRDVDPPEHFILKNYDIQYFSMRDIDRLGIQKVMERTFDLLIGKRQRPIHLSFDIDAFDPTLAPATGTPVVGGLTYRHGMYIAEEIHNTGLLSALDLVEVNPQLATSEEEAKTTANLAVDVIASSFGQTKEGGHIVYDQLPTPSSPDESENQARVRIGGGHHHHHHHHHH

B1: C0020065 recombinant human IgG1 (antibody, V domains shown)
VH: GVNLRESGGGVVQPGRSLRLSCAASGFTFSSYAMHWVRQAPGKGLEWVAVISYDGSNKYYVDSVKGRFTISRDNSKNTLYLQMNSLRAEDTAVYYCARDSSQLWFDYWGRGTLVTVSS
VL: QSVVTQPPSVSGAPGQRVTISCTGSSSNIGTGYDVHWYQQLPGTAPKLLIYGNSNRPSGVPDRFSGSKSGTSASLAITGLQAEDEADYYCQSYDSSLSGSVVFGGGTQLTVL
Turning to B1, in assay [1], the EC50, In Presence of rhARG2 (T cell proliferation) was greater than 2000 nM and the Maximum % Proliferation, In Presence of rhARG2 worked out at 49%.

B2: C0021142 scFv (scFv, part only; not given: linker, domain order, tag, V domains shown, not shown: another chain or arm of the molecule; small tags and cut ends)
VH: EVQLLESGGGLVQPGGSLRLSCAASGFTFSSYAMSWVRQAPGKGLEWVSAHTHSPGSTYYADSVKGRFTISRDNSKNTLYLQMNSLRAEDTAVYYCARLRADLGLYMDLWGRGTLVTVSS
VL: QSVLTQPPSVSAAPGQKVTISCSGSSSNIGNHYVSWYQQLPGTAPKLLIYDNSERPSGVPDRFSGSKSGTSATLGITGLQTGDEADYYCGTWDSSLSALVFGGGTKLTVL
By IC50 is commonly meant the concentration needed to halve the response being measured. As for B2, the half-inhibitory concentration (IC50) in assay [2] is 57.8 nM. In assay [1], the Trimeric human ARG2 EIA IC50 worked out at 97.6 nM.

B3: C0021139 Fab (Fab, V domains shown)
VH: EVQLLESGGGLVQPGGSLRLSCAASGFTFQYDYQVWVRQAPGKGLEWVSAISGSGGSTYYADSVKGRFTISRDNSKNTLYLQMNSLRAEDTAVYYCARLRADLGLYMDLWGRGTLVTVSS
VL: QSVLTQPPSVSAAPGQKVTISCSGSSSNIGNHYVSWYQQLPGTAPKLLIYDNSERTSGIPDRFSGSKSGTSATLGITGLQTGDEADYYCGTWDELTSNLVFGGGTKLTVL
B3: the SEC peak of the 1:1 molar ARG2:Fab mixture in assay [3] is 275 kDa. The increase in average hydrodynamic radius (Rh) against ARG2-C0020187 Fab complexes in assay [4] was determined as 1.5 nm.
